Results from patent US20200190192A1 (SUTRO BIOPHARMA, published 2020).
Changes are numbered by the printed parent chain. In names and notes the source's numbering stands.

B1: 1353-G10 wt IgG (antibody, V domains shown)
VH: EVQLVQSGAEVKKPGASVKVSCKASGYRFPHYGISWVRQAPGQGLEWMGWISAYNGNTNYAQKLQGRVTMTTDTSTNTAYMELRSLRSDDTAVYYCARDVDYGTGSGYWGQGTLVTVSS
VL: SYELTQPPSVSVSPGQTARITCSGDALPKQYAYWYQQKPGQAPVMVIYKDTERPSGIPERFSGSSSGTKVTLTISGVQAEDEADYYCQSADNSITYRVFGGGTKVTVL
notes: IgG; also called Sample I
B2: 1353-G10 H1/vk1-39 IgG (antibody, V domains shown)
VH: B1 VH with R28T, P30D, H31S
VL: DIQLTQSPSSLSASVGDRVTITCSGDALPKQYAYWYQQKPGKAPKLLIYKDTERPSGVPSRFSGSSSGTKVTLTISSLQPEDFATYYCQSADNSITYRVFGGGTKVEIK
notes: IgG; also called Sample L
B3: h22E11-VK2-28 × h22E11-VH1-69 (antibody, V domains shown)
VH: QVQLVQSGAEVKKPGSSVKVSCKVSGFSLTSYGVHWVRQAPGQGLEWLVVIWSDGSTTYNQKFQGRVTITKDESTSTVYMELSSLRSEDTAVYYCARQGGYRYDDAMDYWGQGTLVTVSS
VL: DIVLTQSPLSLPVTPGEPASISCKASQSVDYDGNSYVNWYLQKPGQSPQLLIYAASNLESGVPDRFSGSGSGTDFTLKISRVEAEDVGVYYCQQSNEDPYTFGQGTKVEIK
notes: Humanized m22E11
B4: h22E11-VK2-28 × h22E11-VH4-30-4 (antibody, V domains shown)
VH: QVQLQESGPGLVKPSQTLSLTCTVSGFSLTSYGVHWIRQPPGKGLEWLVVIWSDGSTTYNPSLKSRVTISKDTSKNQVSLKLSSVTAADTAVYYCARQGGYRYDDAMDYWGQGTLVTVSS
VL: B3 VL
notes: Humanized m22E11
B5: h22E11-VK2-28 × h22E11-VH5-51 (antibody, V domains shown)
VH: EVQLVQSGAEVKKPGESLKISCKVSGFSLTSYGVHWVRQMPGKGLEWLVVIWSDGSTTYNPSFQGQVTISKDKSISTVYLQWSSLKASDTAMYYCARQGGYRYDDAMDYWGQGTLVTVSS
VL: B3 VL
notes: Humanized m22E11
B6: h22E11-VK4-1 × h22E11-VH1-69 (antibody, V domains shown)
VH: B3 VH
VL: DIVLTQSPDSLAVSLGERATINCKASQSVDYDGNSYVNWYQQKPGQPPKLLIYAASNLESGVPDRFSGSGSGTDFTLTISSLQAEDVAVYYCQQSNEDPYTFGQGTKVEIK
notes: Humanized m22E11
B7: h22E11-VK1-39 × h22E11-VH3-23 (antibody, V domains shown)
VH: EVQLLESGGGLVQPGGSLRLSCAVSGFSLTSYGVHWVRQAPGKGLEWLVVIWSDGSTTYNDSVKGRFTISKDNSKNTVYLQMNSLRAEDTAVYYCARQGGYRYDDAMDYWGQGTLVTVSS
VL: DIQLTQSPSSLSASVGDRVTITCKASQSVDYDGNSYVNWYQQKPGKAPKLLIYAASNLESGVPSRFSGSGSGTDFTLTISSLQPEDFATYYCQQSNEDPYTFGQGTKVEIK
notes: Humanized m22E11
B8: h22E11-VK2-28 × h22E11-VH3-23 (antibody, V domains shown)
VH: B7 VH
VL: B3 VL
notes: Humanized m22E11
B9: h22E11-VK1-39 × h22E11-VH5-51 (antibody, V domains shown)
VH: B5 VH
VL: B7 VL
notes: Humanized m22E11
B10: h22E11-VK1-39 × h22E11-5-IgG-HC (antibody, V domains shown)
VH: B7 VH with L5V, D61S, S62A, V63L, G65S, S74A, T77S
VL: B7 VL
notes: Humanized m22E11
B11: h22E11-VK2-28 × h22E11-5-IgG-HC (antibody, V domains shown)
VH: B7 VH with L5V, D61S, S62A, V63L, G65S, S74A, T77S
VL: B3 VL
notes: Humanized m22E11
B12: SRP1649-B06 (antibody, V domains shown)
VH: EVQLVESGGGLVQPGGSLRLSCAASGFNISNHAIHWVRQAPGKGLEWVADISPAVGYTDYADSVKDRFTISADTSKNTAYLQMNSLRAEDTAVYYCARGYVYRMWDSFDHWGQGTLVTVSS
VL: not shown
notes: IgG with trastuzumab LC; HIS- and FLAG-tagged
B13: SRP1649-C05 (antibody, V domains shown)
VH: B12 VH with S30G, N31K, A33V, S52V, A54N, V55G, D59E, H110Y
VL: not shown
notes: as for B12
B14: SRP1649-E10 (antibody, V domains shown)
VH: B12 VH with H32N, A33V, A49G, S52M, A54G, V55G, Y57S, F108Y, H110Y
VL: not shown
notes: as for B12
B15: SRP1649-D06 (antibody, V domains shown)
VH: B12 VH with S30R, S52A, V55G, F108Y, H110Y
VL: not shown
notes: as for B12
B16: SRP1649-G08 (antibody, V domains shown)
VH: EVQLVESGGGLVQPGGSLRLSCAASGFNISNYVIHWVRQAPGKGLEWVAAITPDGGITEYADSVKGRFAISADTSKNTAYLQMNSLRAEDTAVYYCARGYVYRMWDSYDYWGQGTLVTVSS
VL: not shown
notes: as for B12
B17: SRP1649-E08 (antibody, V domains shown)
VH: EVQLVESGGSLVQPGGSLRLSCAASGFSISNYVIHWVRQAPGKGLEWVADISPDGGFTDYADSVKDRFTISADTSKNTAYLQMNSLRAEDTAVYYCARGHVYRLWDSFDYWGRGTLVTVSS
VL: not shown
notes: as for B12
B18: SRP1649-B09 (antibody, V domains shown)
VH: B12 VH with S30R, H32N, S52T, V55G, D59G, V101I, F108L, H110Y
VL: not shown
notes: as for B12
B19: SRP1649-H02 (antibody, V domains shown)
VH: B16 VH with S30R, N31S, V33A, A50D, D54A, I57D, A69T, V101I
VL: not shown
notes: as for B12
B20: SRP1649-D11 (antibody, V domains shown)
VH: B16 VH with N31G, A50D, T52I, D54T, G55A, I57Y, A69T, Y108F
VL: not shown
notes: as for B12
B21: 1353-G10 scFvFc-zwB × 1649-A01 Hc zwA Y56D/TrstmbLC S56D (bispecific antibody)
scFv: not shown
VH: B16 VH with N31R, V33Y, A50G, D54V, G55R, I57D, G66D, A69T
VL: not shown
notes: Tim-3 heavy chain with zwA CH3 mutations

Each binder was assayed against T1, human PD-1 expressed on CHO cells (human, UniProt Q15116 25-288) (assay: hPD-1 binding titration (format not named; taken as cell binding)).
T1 construct: also called hPD-1; CHO-hPD-1
In the case of B1, the Bmax is reported as 2980 and the Kd is reported as 0.1 nM. Binder B2 has a Bmax of 4940 and a Kd of 12.9 nM.

These binders were tested against T2, recombinant human Tim-3-Fc (R&D Systems, 2365-TM) (human, UniProt Q8TDQ0 22-202, biotinylated in the Galectin-9 competition ELISA (sites not given)) (assay: SPR Biacore, human Tim-3 Fc;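 note: antibodies captured on an anti-FLAG sensor surface, Tim-3-Fc flowed over as analyte at 25 °C in HBS-EP+ buffer, rates fit with a 1:1 Langmuir model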).
T2 construct: Bought protein; also called huTim-3-Fc; biotinylated Tim-3-Fc; not shown: Fc of the bought fusion protein
B3 showed a koff of 0.000863 s⁻¹. B4 showed a koff of 0.00109 s⁻¹. With B5 the koff was 0.000903 s⁻¹. B6 gave a koff of 0.000863 s⁻¹. B7 was tested, and the koff was 0.00094 s⁻¹. With B8 the koff was 0.000911 s⁻¹. B9 was tested, and the koff was 0.000947 s⁻¹. B10 gave a koff of 0.00102 s⁻¹. With B11 the koff was 0.00101 s⁻¹.

The binders below were run against T3, human Tim-3 expressed on the cell surface (human, UniProt Q8TDQ0 22-301) (assay: flow cytometry, CHO-human Tim-3 cells).
T3 construct: also called hTim-3; Human Tim-3 (CHO)
B12 was tested, and the Kd was 0.2 nM. B13 was tested, and the Kd was 0.2 nM. Binder B14 has a Kd of 0.2 nM. For B15, the Kd was 0.1 nM. B16 was tested, and the Kd was 0.2 nM. B17 was tested, and the Kd was 0.2 nM. B18 showed a Kd of 0.2 nM. Work on B19 yielded a Kd of 0.2 nM. For B20, the Kd was 0.1 nM.

Each binder was assayed against PD-1 (SPR analyte of the PD-1 kinetics) (Homo sapiens (Human), UniProt Q15116 25-167, limits assumed) (assay: SPR, PD-1 kinetics).
Binder B1 has a Kd of 0.96 nM, a koff of 0.00059 s⁻¹ and a kon of 620000 M⁻¹ s⁻¹.

Target: T3, human Tim-3 expressed on the cell …
Test: flow cytometry, CHO-human Tim-3 cells
Design: Bmax: unit not given here
Remark: another data set of the same source
Binder B21 has a Bmax of 11200 and a Kd of 4.5 nM.

The binders below were run against T4, human Tim-3 (Biacore analyte; TIM-3-Fc or TIM-3-HIS, not said which) (human, UniProt Q8TDQ0 22-202) (assay: SPR Biacore, human Tim-3 (Fc or HIS not said)).
T4 construct: also called TIM-3 antigen; not shown: Fc or HIS tag
Binder B12 has a Kd of 66.9 nM, a koff of 0.0126 s⁻¹ and a kon of 189000 M⁻¹ s⁻¹. B13 was tested, and the Kd was 13.7 nM, the koff was 0.00166 s⁻¹ and the kon was 121000 M⁻¹ s⁻¹. B14 showed a Kd of 49.7 nM, a koff of 0.014 s⁻¹ and a kon of 281000 M⁻¹ s⁻¹. For B15, the Kd was 74.6 nM, the koff was 0.0205 s⁻¹ and the kon was 275000 M⁻¹ s⁻¹. Work on B16 yielded a Kd of 12.8 nM, a koff of 0.00243 s⁻¹ and a kon of 191000 M⁻¹ s⁻¹. With B17 the Kd was 13.5 nM, the koff was 0.00182 s⁻¹ and the kon was 135000 M⁻¹ s⁻¹. Binder B18 has a Kd of 18.8 nM, a koff of 0.00249 s⁻¹ and a kon of 133000 M⁻¹ s⁻¹. B19 was tested, and the Kd was 23.9 nM, the koff was 0.00374 s⁻¹ and the kon was 157000 M⁻¹ s⁻¹. Work on B20 yielded a Kd of 10.6 nM, a koff of 0.00159 s⁻¹ and a kon of 150000 M⁻¹ s⁻¹.

Target: T5, cynomolgus Tim-3 expressed on CHO cells (cynomolgus monkey)
T5 construct: also called cTim-3; Cyno Tim-3 (CHO)
T5 chain: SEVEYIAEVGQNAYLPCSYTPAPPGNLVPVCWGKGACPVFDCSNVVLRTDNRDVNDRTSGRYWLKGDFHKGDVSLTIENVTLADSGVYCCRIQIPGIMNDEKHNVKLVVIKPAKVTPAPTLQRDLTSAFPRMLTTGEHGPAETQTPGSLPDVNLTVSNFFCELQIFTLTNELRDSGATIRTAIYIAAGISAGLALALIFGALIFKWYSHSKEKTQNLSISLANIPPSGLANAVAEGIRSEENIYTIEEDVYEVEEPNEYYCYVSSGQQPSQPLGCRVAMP
Test: flow cytometry, CHO-cyno Tim-3 cells
Work on B3 yielded a Kd of 1.7 nM. B4 was tested, and the Kd was 4.3 nM. B5 gave a Kd of 2.3 nM. For B6, the Kd was 2.5 nM. Binder B7 has a Kd of 4.5 nM. Work on B8 yielded a Kd of 5.4 nM. B9 was tested, and the Kd was 2.1 nM. Work on B10 yielded a Kd of 4.7 nM. In the case of B11, the Kd is reported as 4.1 nM.

The binders below were run against T1, human PD-1 expressed on CHO cells (assay: flow cytometry, CHO-human PD-1 cells).
Design: Bmax: unit not given here
B21 was tested, and the Bmax was 13300 and the Kd was 2.3 nM.

Target: T3, human Tim-3 expressed on the cell …
Test: flow cytometry, CHO-human Tim-3 cells
Remark: another data set of the same source
B3 was tested, and the Kd was 0.7 nM. B4 gave a Kd of 0.8 nM. In the case of B5, the Kd is reported as 0.6 nM. B6 was tested, and the Kd was 1 nM. B7 gave a Kd of 0.5 nM. For B8, the Kd was 0.8 nM. B9 was tested, and the Kd was 0.4 nM. Work on B10 yielded a Kd of 0.6 nM. In the case of B11, the Kd is reported as 0.8 nM.

Each binder was assayed against T6, biotinylated recombinant human PD-1 (AcroBiosystems) (human, UniProt Q15116 25-167, limits assumed, biotinylated (sites not given)) (assay: competition, flow cytometry: biotin-PD-1 binding to CHO-human PD-L1 cells).
T6 construct: Bought protein; also called biotinylated PD-1
B21 gave an IC50 of 82 nM.

Target: T5, cynomolgus Tim-3 expressed on CHO cells
Test: flow cytometry, CHO-cyno Tim-3 cells
Remark: another data set of the same source
Binder B12 has a Kd of 1.9 nM. In the case of B13, the Kd is reported as 0.8 nM. Binder B14 has a Kd of 7.4 nM. For B15, the Kd was 1 nM. For B16, the Kd was 9.3 nM. With B17 the Kd was 12.4 nM. B18 was tested, and the Kd was 9.4 nM. For B19, the Kd was 2.2 nM. B20 gave a Kd of 2.2 nM.

Each binder was assayed against T3, human Tim-3 expressed on the cell … (assay: flow cytometry, activated human CD4+ T cells).
B3 was tested, and the Kd was 2.3 nM. Work on B4 yielded a Kd of 9.2 nM. Work on B5 yielded a Kd of 0.7 nM. B6 gave a Kd of 6.3 nM. B7 gave a Kd of 1.1 nM. Binder B8 has a Kd of 1.7 nM. B9 gave a Kd of 0.9 nM. B10 showed a Kd of 2.4 nM. B11 gave a Kd of 3.3 nM.

Each binder was assayed against T2, recombinant human Tim-3-Fc (R&D …) (assay: SPR Biacore, human Tim-3 Fc; KD estimated).
For B3, the Kd was 5.4 nM. For B4, the Kd was 7.9 nM. Work on B5 yielded a Kd of 4.8 nM. B6 was tested, and the Kd was 5.5 nM. B7 showed a Kd of 5.6 nM. Binder B8 has a Kd of 5.9 nM. In the case of B9, the Kd is reported as 5.3 nM. B10 showed a Kd of 6.2 nM. B11 showed a Kd of 6.7 nM.
